From patent publication US20130274185A1, “Pharmaceutical for Pseudo-Exercise Therapy” (THE UNIVERSITY OF TOKYO, priority 2010, published 2013)

Tests used:
C2C12 myocytes [1] = assay: Calcium imaging in C2C12 myocytes (fura-2); format: cell-based, mouse
Description: C212 myocytes cultured on glass base dishes (IWAKI) were treated with 2.5 μM fura-2/AM for 30 min. Fluorescence was measured with an Aquacosmos Calcium Imaging system (Hamamatsu Photonics). Ligands were delivered through the superfusing Ringer's solution (140 mM NaCl, 5.6 mM KCl, 5 mM HEPES, 2.0 mM sodium pyruvate, 1.25 mM KH2PO4, 2.0 mM CaCl2, 2.0 mM MgCl2, 9.4 mM D-glucose (pH 7.4)). For the calcium chelating experiment, EGTA solution (140 mM NaCl, 5.6 mM KCl, 5 mM HEPES, 2.0 mM sodium pyruvate, 1.25 mM KH2PO4, 2.0 mM MgCl2, 5.0 mM EGTA-2Na, 9.4 mM D-glucose (pH 7.4) was used for the bath solution. Fura-2 fluorescence ratios were calibrated to calcium ion signals.

AMPK [2] = assay: AMPK phosphorylation in vivo (skeletal muscle and liver); design: species or system mice; settings: 30 μg per 10 g body weight, 10 min
Description: Mouse full-length adiponectin was generated as described in the following documents (Nature Med. 8, 1288-1295 (2002); Nature Med. 7, 941-946 (2001); Nature 423, 762-769 (2003)).
Real-time PCR was carried out according to the method described in the following documents (Nature Med. 13, 332-339 2007); Nature 423, 762-769 (2003); J. Biol. Chem. 281, 8748-8755 (2006)). Total RNA was prepared from cells or tissues by using Trizol (Invitrogen) according to the manufacturer's instructions. Quantification of mRNA was conducted using a real-time PCR method (Nature 423, 762-769 (2003)) with slight modifications. The procedures used for immunoblotting are described in the following documents (Nature Med. 7, 941-946 (2001); J. Biol. Chem. 281, 26602-26614 (2006); J. Biol. Chem. 281, 8748-8755 (2006)). The livers or muscles were freeze-clamped in liquid nitrogen in situ (Nature Med. 7, 941-946 (2001); J. Biol. Chem. 281, 26602-26614 (2006); J. Biol. Chem. 281, 8748-8755 (2006)).

CaMKI = CaMKI phosphorylation in C2C12 myocytes; format: cell-based, mouse; settings: adiponectin 30 μg/ml, 0-20 min
Description: (§1) The mouse C2C12 myoblasts were grown in 90% Dulbecco's modified high glucose Eagle's medium containing 10% (v/v) fetal bovine serum. When the cells reached 80% confluent, the myoblasts were induced to differentiate into myocytes by replacing the medium with a low serum differentiation medium (98% Dulbecco's modified high glucose Eagle's medium, 2.5% (v/v) horse serum). The medium was changed daily. The C2C12 cells were transfected by using Pofectamine 2000 (Invitrogen) and following the manufacturer's instructions.

AMPK [3] = assay: AMPK phosphorylation in C2C12 myocytes; format: cell-based, mouse; settings: C2C12 myocytes, adiponectin 30 μg/ml
Description: as §1

soleus muscle = assay: Calcium imaging in skeletal muscle (soleus); format: cell-based, mice; settings: adiponectin 30 μg/ml
Description: From 8-10 weeks-old mice, soleus muscles were dissected. Preparations were treated with 5 μM fura-2/AM in the presence of 0.1% Chremophore EL (Sigma) for 15 min. Fluorescence images were acquired using an inverted fluorescence microscopy (IX71, Olympus) equipped with a cooled charge-coupled device (CCD) camera (iXon, Andor) and a dry objective lens (10×, NA=0.3, Olympus) through a filter set consisting of a 327-353 nm and 369-391 nm excitation filter, a 409 nm dichroic mirror, and a 515-560 nm fluorescent filter. Ligands were supplied using the superfusing Ringer's solution (150 mM NaCl, 4 mM KCl, 2.0 mM CaCl2, 1.0 mM MgCl2, 30 mM D-glucose, 5 mM HEPES (pH 7.4)).

C2C12 myocytes [4] = assay: Patch clamp test, whole-cell current in C2C12 myocytes; format: cell-based, mouse; settings: adiponectin 30 μg/ml 30 sec, holding potential -60 mV
Description: Whole-cell currents were amplified with a patch-clamp amplifier (CEZ-2400; Nihon Kohden) and were digitized with a PowerLab digitizer (AD Instruments). Ringer's solution was used for the extracellular solution. The electrode solution contained 140 mM KCl, 10 mM HEPES, 5 mM EGTA-2K, and 10 mM D-glucose (pH 7.4). The data were low-pass filtered at 2 kHz and were sampled at 20 kHz. Ligands dissolved in Ringer's solution were applied at least twice with a self-made pressure-ejection system and via a two-barreled glass capillary.

C2C12 myocytes [5] = assay: Mitochondrial content assay in C2C12 myocytes; format: cell-based, mouse
Description: as §1
Mitochondrial content assays were carried out as described in the following document (Cell Metab. 4, 75-87 (2006)), with slight modifications. Quantification of the mitochondrial content was conducted by using mtDNA and MitoTracker Green probe (Molecular Probes) according to the method as described in the following document (Obes. Res. 13, 574-581 (2005)). MitoTracker Green probe preferentially accumulates in mitochondria regardless of the mitochondrial membrane potential and provides an accurate assessment of mitochondrial mass. Cells were washed with PBS and after addition of 100 nM MitoTracker Green FM (Molecular Probes), incubated at 37° C. for 30 min. Cells were harvested by using trypsin/EDTA and resuspended in PBS. Fluorescence intensity was detected with excitation and emission wavelengths of 490 and 516 nm, respectively, and the values thus measured were corrected for total protein (mg/ml).

[6] = C2C12 myocytes, 30 μg/ml adiponectin

B1: adiponectin (protein, UniProt Q60994 1-247, looked up)
chain: MLLLQALLFLLILPSHAEDDVTTTEELAPALVPPPKGTCAGWMAGIPGHPGHNGTPGRDGRDGTPGEKGEKGDAGLLGPKGETGDVGMTGAEGPRGFPGTPGRKGEPGEAAYVYRSAFSVGLETRVTVPNVPIRFTKIFYNQQNHYDGSTGKFYCNIPGLYYFSYHITVYMKDVKVSLFKKDKAVLFTYDQYQEKNVDQASGSVLLHLEVGDQVWLQVYGDGDHNGLYADNVNDSTFTGFLLYHDTN
modifications: full-length
notes: adipokine, internal ligand of adiponectin receptor 1; recombinant murine full-length adiponectin
dose dependence of calcium response (C2C12 myocytes [1]): dose-dependent responses
intracellular calcium ion concentration (fura-2) (C2C12 myocytes [1]; adiponectin 30 μg/ml): increased an intracellular calcium ion concentration
phosphorylation of AMPK in liver (AMPK [2]; both genotypes): increased the phosphorylation of AMPK in the liver of both genotypes
phosphorylation of AMPK in skeletal muscle (AMPK [2]; control littermates): increased the phosphorylation of AMPK in the muscle of control littermates
CaMKI phosphorylation (CaMKI): rapid, robust, and transient increase
phosphorylation of AMPK α-subunits at Thr 172 (AMPK [3]): increased the phosphorylation of the AMPK α-subunits at Thr 172
intracellular calcium ion concentration in soleus muscle (fura-2) (soleus muscle; control mice): increased the intracellular calcium ion concentration
calcium responses of soleus muscle (soleus muscle; muscle-R1KO mice): almost completely disappeared
whole-cell inward current response (C2C12 myocytes [4]): Inward current responses to adiponectin were observed
mitochondrial biogenesis (C2C12 myocytes [5]; C2C12 myocytes expressing PGC-1α-R13 mutant): failed to further induce mitochondrial biogenesis
amount of mitochondria as assessed by MitoTracker green (C2C12 myocytes [5]; [6]): increased
mitochondrial DNA content (C2C12 myocytes [5]; [6]): increased a mitochondrial DNA content
